According to US6897296:

Biological target: bacterially expressed recombinant Mch4 (GST-Mch4 fusion protein) (human)

DEVD-CHO (tetrapeptide DEVD aldehyde) gave a Ki of 0.014 µM.
